Reference: the Human Domainome abundance scans (Beltran et al. 2025)

B1: DnaJ homolog subfamily C member 2, residues 451 to 503; numbered along this chain, Q99543 (parent)
chain: SKNWSEDDLQLLIKAVNLFPAGTNSRWEVIANYMNIHSSSGVKRTAKDVIGKA
B2: Formin-binding protein 4, residues 593 to 636; numbered along this chain, Q8N3X1 (parent)
chain: EINATPKGWSCHWDRDHRRYFYVNEQSGESQWEFPDGEEEEEES

Variants of: B1
Experiment: abundance fitness (aPCA) (normalised: wild type 0, dead -1); higher = more abundant; growth selection in yeast, the domain comes from the species named
Conditions: Homo sapiens

Abundance fitness: each site, then its substitutions
S1: F -0.112; L -0.32; W -0.721; M -0.364; P -0.547; A -0.372; V -0.063; Y -0.37; H -0.348; G 0.092; T -0.086; C -0.261
K2: M -0.076; L -0.287; A -0.259; G -0.159; C -0.274; I 0.1; T -0.017; H -0.214; Q -0.375; N 0.076; Y -0.138; S -0.059; R -0.184; V -0.365; D -0.044; E -0.096; W -0.334; F -0.314
L11: F -0.382; K -0.747; M -0.229; A -0.712; I 0.007; G -0.819; Y -0.579; P -0.891; S -0.582; V -0.37; C -0.403; D -0.802; Q -0.632; R -0.536
Q10: P -0.802; T -0.319; N -0.083; G -0.141; S -0.163; L -0.141; C -0.577; M -0.34; K -0.107; D -0.217; V -0.206; H -0.254; A -0.189; W -0.706; E -0.054; Y -0.207; F -0.483; I -0.212
D8: K -0.422; T -0.186; Q -0.559; M -0.844; Y -0.712; I -0.534; A -0.977; C -0.732; V -0.937; E -0.081; S -0.615; N -0.757; R -0.453; P -1.06
D7: R 0.015; Q 0.063; V -0.054; N -0.114; G -0.015; W -0.437; Y -0.369; H -0.257; E 0.086; K -0.04; C -0.889; P -0.045; M 0.037; S 0.042; I -0.19; T -0.005; A 0.106; F -0.308; L -0.047
W4: S -0.599; K -0.758; F -0.104; Q -0.704; V -0.908; E -0.825; Y -0.341; I -0.465; T -0.621; P -0.828; R -0.777; C -0.704; L -0.229; M -0.06; A -0.639; D -0.808
L9: W -0.058; D 0.156; Q 0.145; V -0.082; Y 0.022; F 0.065; P -0.724; C -0.052; N 0.184; R -0.054; A -0.014; M 0.036; I -0.014; G -0.143; K -0.043; E 0.03; H -0.071
N3: C -0.247; K -0.441; P -0.159; W -0.491; I 0.021; R -0.338; S -0.234; G -0.459; F -0.037; D 0.015; T -0.114; E -0.554; V -0.227; H -0.025; L -0.12
E6: K -0.679; F 0.038; M -0.366; T -0.175; H -0.615; V -0.121; Y -0.186; D -0.154; Q -0.055; G -0.155; C 0.051; P 0.107; S 0.074; R -0.543; L -0.404
S5: Y -0.715; C -0.286; A -0.747; F -0.654; V -0.676; D -0.676; M -0.514; T -0.014

Variants of: B2
Experiment: as above
Conditions: Homo sapiens

Abundance fitness of substitutions, site by site:
P35: F -0.854; V -0.583; D -0.712; T -0.753; G -0.611; L -0.801; Y -0.995; K -0.482; A -0.455; N -0.74; S -0.651; M -0.734; R -0.661; W -0.782
E38: Q 0.061; T -0.014; R -0.023; M 0.058; H -0.2; V 0.008; S 0.045; F -0.217; W -0.314; A 0.018; P 0.056; Y -0.316; G -0.051; I -0.021; C -0.047
E40: Q -0.033; G 0.012; M -0.127; K -0.004; A 0.038; P -0.011; L 0.008; Y 0.114; T 0.151; V 0.056; D -0.158; N -0.057; W -0.101; F -0.144; R -0.035
E39: W -0.191; C 0.048; R -0.068; S -0.056; D -0.128; K 0.048; I -0.074; F -0.155; M -0.109; N 0.052; Q 0.074; P 0.041; T 0.11; G -0.057; V 0.008; L 0.075
D36: M -0.09; W -0.262; Y -0.494; E -0.113; S 0.003; N -0.273; P -0.025; C -0.097; Q -0.063; L -0.176; I -0.07; A -0.04; R -0.012; T -0.137; V -0.044; K -0.076; F -0.232; H -0.087
E43: N -0.08; S 0.041; W -0.197; F 0.248; L -0.086; R -0.056; G 0.021; K 0.021; A 0.068; T 0.008; D -0.02; Q -0.433; V 0.046; P 0.044; M -0.148
E41: V 0.042; K -0.048; P 0.031; N -0.109; T -0.011; G 0.041; L -0.1; S -0.139; D -0.28; F -0.079; C 0.016; A 0.012; Y -0.502; R 0.007; M -0.064; Q 0.056
E42: L -0.073; I -0.409; H -0.009; F -0.368; V -0.005; A 0.04; P 0.004; R 0.01; S 0.032; M 0.038; K 0.022; C -0.023; T 0.026; W -0.283; D 0.038; Y -0.152; G 0.122
G37: E -0.095; T -0.026; V -0.007; I -0.232; W -0.154; H -0.021; S -0.112; C -0.088; L -0.151; D -0.266; R -0.222; P -0.034; Q -0.089; M -0.216; A -0.032
F34: E -0.074; S -0.282; M -0.07; V -0.044; L 0.015; W -0.13; G -0.392; D -0.222; C -0.035; H -0.011; N -0.635; K 0.222; Y -0.084; Q 0.015; R 0.081; T 0.013; A -0.059; P 0.071
S44: T -0.084; H -0.013; Q 0.247; G 0.083; V 0.253; D -0.043; L -0.194; R 0.025; M -0.536
